This note sets out measurements from article PMC10199020.

This assay deals with NL-IL23R co-expressed with IL12Rβ1 (IL-23 receptor on cells) (UniProt Q5VWK5). In words: FRET or BRET; NanoBRET competition on living transfected HEK293T cells; 300 pM IL23-TMR displaced by unlabelled antagonist (concentration series or a single concentration); 1 h at 37 °C in HBSS with 1 mg/mL BSA. For orientation: In BRET a luciferase serves as donor, and the signal depends on an acceptor being close.
NL-IL23R co-expressed with IL12Rβ1 (IL-23 receptor on cells), sequence (Q5VWK5 24-629, chain 1 of 2, other chains not shown): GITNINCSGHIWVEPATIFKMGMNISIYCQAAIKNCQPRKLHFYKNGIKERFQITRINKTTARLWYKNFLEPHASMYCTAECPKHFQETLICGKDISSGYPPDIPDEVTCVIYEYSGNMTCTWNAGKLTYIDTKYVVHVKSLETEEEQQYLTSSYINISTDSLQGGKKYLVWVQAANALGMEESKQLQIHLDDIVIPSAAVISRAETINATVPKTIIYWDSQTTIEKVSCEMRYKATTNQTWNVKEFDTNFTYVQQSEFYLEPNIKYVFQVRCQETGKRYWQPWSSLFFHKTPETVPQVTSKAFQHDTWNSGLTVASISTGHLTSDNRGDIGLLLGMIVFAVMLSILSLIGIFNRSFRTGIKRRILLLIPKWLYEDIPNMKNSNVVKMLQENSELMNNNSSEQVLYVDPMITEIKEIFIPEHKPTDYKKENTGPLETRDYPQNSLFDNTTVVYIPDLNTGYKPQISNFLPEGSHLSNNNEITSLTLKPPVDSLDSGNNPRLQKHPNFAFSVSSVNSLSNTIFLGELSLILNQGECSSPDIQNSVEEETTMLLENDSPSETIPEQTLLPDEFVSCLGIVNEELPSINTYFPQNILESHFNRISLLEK

In the case of “IL12p80 (from UniProt P29460 23-328) (ligand)”, the Ki (as a rule, the dissociation constant of the complex between target and ligand, obtained from inhibition or displacement) amounted to 0.469 nM. This counts as sub-nanomolar.
